According to patent US20230374116A1 (ROSALIND FRANKLIN INSTITUTE, published 2023):

B1: C1 trimer (VHH)
chain: QVQLVESGGGLVQPGGSLRLSCAASGFTNDFYSIAWFRQAPGKEREGVSWLSVSDNTPTYVDSVKDRFTISRHNANNTVYLQMNMLKPEDTAIYYCAAGRFAGRDTWPSSYDYWGQGTQVTVSSGSGSGSQVQLVESGGGLVQPGGSLRLSCAASGFTNDFYSIAWFRQAPGKEREGVSWLSVSDNTPTYVDSVKDRFTISRHNANNTVYLQMNMLKPEDTAIYYCAAGRFAGRDTWPSSYDYWGQGTQVTVSSGSGSGSQVQLVESGGGLVQPGGSLRLSCAASGFTNDFYSIAWFRQAPGKEREGVSWLSVSDNTPTYVDSVKDRFTISRHNANNTVYLQMNMLKPEDTAIYYCAAGRFAGRDTWPSSYDYWGQGTQVTVSS
B2: H3 trimer (VHH)
chain: QVQLVESGGGLVKTGGSLRLSCAASGRTFSTYSMGWFRQAPGKEREFVAGMRWTGSSTFYSDSVKGRFTVSRNNAKDTVYLHMNSLKPEDTAVYYCAITTIVRAYYTEYTEADFGSWGQGTQVTVSSGAVLAPQVQLVESGGGLVKTGGSLRLSCAASGRTFSTYSMGWFRQAPGKEREFVAGMRWTGSSTFYSDSVKGRFTVSRNNAKDTVYLHMNSLKPEDTAVYYCAITTIVRAYYTEYTEADFGSWGQGTQVTVSSGSGSGSQVQLVESGGGLVKTGGSLRLSCAASGRTFSTYSMGWFRQAPGKEREFVAGMRWTGSSTFYSDSVKGRFTVSRNNAKDTVYLHMNSLKPEDTAVYYCAITTIVRAYYTEYTEADFGSWGQGTQVTVSS
B3: C5 trimer (VHH)
chain: QVQLVESGGGSVQAGGSLTLSCVASGVTLGRHAIGWFRQAPGKERERVSCIRTFDGITSYVESTKGRFTISSNNAMNTVYLQMNSLKPEDTAVYFCALGVTAACSDNPYFWGQGTQVTVSSGSGSGSQVQLVESGGGSVQAGGSLTLSCVASGVTLGRHAIGWFRQAPGKERERVSCIRTFDGITSYVESTKGRFTISSNNAMNTVYLQMNSLKPEDTAVYFCALGVTAACSDNPYFWGQGTQVTVSSGSGSGSQVQLVESGGGSVQAGGSLTLSCVASGVTLGRHAIGWFRQAPGKERERVSCIRTFDGITSYVESTKGRFTISSNNAMNTVYLQMNSLKPEDTAVYFCALGVTAACSDNPYFWGQGTQVTVSS
notes: also called trimeric C5 nanobody; C5-6GS-C5-6GS-C5
B4: A8 trimer (bispecific antibody)
chain: QVQLVESGGGLVQAGGSLRLSCAASGGTFSTAAMGWFRQAPGEERECVASIGWRGVRTWYADSVKGRFTISRDNPQNTVYLQMNNLKSGDTAVYYCAASVGNYGLPWAHFEYDFWGQGIQVTVSSGSGSGSQVQLVESGGGLVQAGGSLRLSCAASGGTFSTAAMGWFRQAPGEERECVASIGWRGVRTWYADSVKGRFTISRDNPQNTVYLQMNNLKSGDTAVYYCAASVGNYGLPWAHFEYDFWGQGIQVTVSSGSGSGSQVQLVESGGGLVQAGGSLRLSCAASGGTFSTAAMGWFRQAPGEERECVASIGWRGVRTWYADSVKGRFTISRDNPQNTVYLQMNNLKSGDTAVYYCAASVGNYGLPWAHFEYDFWGQGTQVTVSSKHHHHHH

The binders below were run against Spike protein on live SARS-CoV-2 Alpha strain (SARS-CoV-2 Alpha (B.1.1.7), UniProt P0DTC2 14-1273) (assay: cell-based or functional assay).

| Binder | ND 50 MN assay, live virus [nM] |
| --- | --- |
| B1 | 8.2 |
| B2 | 0.6 |
| B3 | 0.25 |
| B4 | 0.1 |

The binders below were run against Spike protein on live SARS-CoV-2 Beta strain (SARS-CoV-2 Beta (B.1.351), UniProt P0DTC2 14-1273) (assay: cell-based or functional assay).

| Binder | ND 50 MN assay, live virus [nM] |
| --- | --- |
| B1 | 4.5 |
| B4 | 0.2 |

What follows are binders tested against Spike protein on live SARS-CoV-2 Delta strain (SARS-CoV-2 Delta (B.1.617.2), UniProt P0DTC2 14-1273) (assay: cell-based or functional assay).

| Binder | ND 50 MN assay, live virus [nM] |
| --- | --- |
| B1 | 3.1 |
| B2 | 0.3 |
| B3 | 0.02 |
| B4 | 0.1 |
